Results published in patent US20200062856A1 (XDCEXPLORER SHANGHAI, published 2020).
Blank lines part the entries; values can stand above or below the molecule they belong to.

Assays:
[1] = target: human TPBG protein, full-length, on the cell surface (human) (UniProt Q13641); assay: FACS, HEK293 clone 293F-hTPBG 5G8
[2] = target: human TPBG protein, full-length, on the cell surface (human) (UniProt Q13641); assay: FACS, HEK293 clone 293F-hTPBG 5C12
[3] = target: cynomolgus TPBG protein, full-length, on the cell surface (cynomolgus) (UniProt Q4R8Y9); assay: FACS, CHOk1-cTPBG 3F13G4 cells
[4] = target: human TPBG protein, full-length, on the cell surface (human) (UniProt Q13641); assay: FACS, HEK293 clone 293F-hTPBG 4E1 (NO 8)
[5] = target: human TPBG protein, full-length, on the cell surface (human) (UniProt Q13641); assay: FACS, HEK293 clone 293F-hTPBG 4A9
[6] = target: human TPBG protein, full-length, on the cell surface (human) (UniProt Q13641); assay: FACS, HEK293 clone 293F-hTPBG 4F9
human TPBG-hFc protein [7] = target: T1, human TPBG-hFc protein (human, UniProt Q13641 32-355); assay: ELISA, coated human TPBG-hFc 1.0 ug/mL; control IgG at 0.002 nM
T1 construct: range 32-355; Expressed in HEK293 cells, purified on protein A; also called immunogen A; hFc tagged TPBG protein; not shown: human IgG Fc fragment of the pCpC vector
T1 sequence (looked up): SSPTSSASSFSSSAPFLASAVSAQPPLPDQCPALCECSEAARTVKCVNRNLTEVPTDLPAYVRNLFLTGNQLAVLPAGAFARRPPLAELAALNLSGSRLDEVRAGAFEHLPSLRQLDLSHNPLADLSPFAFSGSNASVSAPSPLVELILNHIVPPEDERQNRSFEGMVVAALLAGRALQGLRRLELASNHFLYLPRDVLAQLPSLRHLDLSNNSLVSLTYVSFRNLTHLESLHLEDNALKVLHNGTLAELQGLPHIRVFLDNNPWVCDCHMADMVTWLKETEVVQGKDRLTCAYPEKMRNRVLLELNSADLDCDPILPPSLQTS

human TPBG-hFc protein [8] = target: T1, human TPBG-hFc protein; assay: ELISA, coated human TPBG-hFc 1.0 ug/mL; control IgG at 0.0002 nM
[9] = target: human TPBG protein, full-length, on the cell surface (human) (UniProt Q13641); assay: FACS, HEK293 clone 293F-hTPBG 4G1
[10] = target: human TPBG protein, full-length, on the cell surface (human) (UniProt Q13641); assay: FACS, HEK293 clone 293F-hTPBG 4A8
human TPBG-hFc protein [11] = target: T1, human TPBG-hFc protein; assay: ELISA, coated human TPBG-hFc 1.0 ug/mL; control IgG at 20 nM
[12] = target: human TPBG protein, full-length, on the cell surface (human) (UniProt Q13641); assay: FACS, HEK293 clone 293F-hTPBG 4H12
[13] = target: human TPBG protein, full-length, on the cell surface (human) (UniProt Q13641); assay: FACS, HEK293 clone 293F-hTPBG 4E1
human TPBG-hFc protein [14] = target: T1, human TPBG-hFc protein; assay: ELISA, coated human TPBG-hFc 1.0 ug/mL; control IgG at 2 nM
human TPBG-hFc protein [15] = target: T1, human TPBG-hFc protein; assay: ELISA, coated human TPBG-hFc 1.0 ug/mL; control IgG at 0.2 nM
[16] = target: human TPBG protein, full-length, on the cell surface (human) (UniProt Q13641); assay: FACS, HEK293 clone 293F-hTPBG 5D4
[17] = target: human TPBG protein, full-length, on the cell surface (human) (UniProt Q13641); assay: FACS, HEK293 clone 293F-hTPBG 5E6
[18] = target: mouse TPBG protein, full-length, on the cell surface (mouse) (UniProt Q9Z0L0); assay: FACS, CHOk1-mTPBG 3A3 cells
human TPBG-hFc protein [19] = target: T1, human TPBG-hFc protein; assay: ELISA, coated human TPBG-hFc 1.0 ug/mL; control IgG at 200 nM
human TPBG-hFc protein [20] = target: T1, human TPBG-hFc protein; assay: ELISA, coated human TPBG-hFc 1.0 ug/mL; control IgG at 0.02 nM
[21] = target: human TPBG protein, full-length, on the cell surface (human) (UniProt Q13641); assay: FACS, HEK293 clone 293F-hTPBG 5H6
[22] = target: human TPBG protein, full-length, on the cell surface (human) (UniProt Q13641); assay: FACS, HEK293 clone 293F-hTPBG 4B9
[23] = target: human TPBG protein, full-length, on the cell surface (human) (UniProt Q13641); assay: FACS, HEK293 clone 293F-hTPBG 5A11
[24] = target: human TPBG protein, full-length, on the cell surface (human) (UniProt Q13641); assay: FACS, HEK293 clone 293F-hTPBG 4C3
[25] = target: human TPBG protein, full-length, on the cell surface (human) (UniProt Q13641); assay: FACS, HEK293 clone 293F-hTPBG 4G6
[26] = target: human TPBG protein, full-length, on the cell surface (human) (UniProt Q13641); assay: FACS, HEK293 clone 293F-hTPBG 5G11
[27] = target: human TPBG protein, full-length, on the cell surface (human) (UniProt Q13641); assay: FACS, HEK293 clone 293F-hTPBG 5A9
[28] = target: human TPBG protein, full-length, on the cell surface (human) (UniProt Q13641); assay: FACS, HEK293 clone 293F-hTPBG 5E5
[29] = target: human TPBG protein, full-length, on the cell surface (human) (UniProt Q13641); assay: FACS, CHOk1-hTPBG 3A2F1 cells
[30] = target: human TPBG protein, full-length, on the cell surface (human) (UniProt Q13641); assay: FACS, HEK293 clone 293F-hTPBG 4C5
[31] = target: T2, cynomolgus TPBG protein, full-length, on the cell surface (cynomolgus, UniProt Q4R8Y9 35-420); assay: FACS on CHOk1-cTPBG cells
T2 construct: whole, on cells; also called cTPBG; CHOk1-cTPBG
T2 sequence (looked up): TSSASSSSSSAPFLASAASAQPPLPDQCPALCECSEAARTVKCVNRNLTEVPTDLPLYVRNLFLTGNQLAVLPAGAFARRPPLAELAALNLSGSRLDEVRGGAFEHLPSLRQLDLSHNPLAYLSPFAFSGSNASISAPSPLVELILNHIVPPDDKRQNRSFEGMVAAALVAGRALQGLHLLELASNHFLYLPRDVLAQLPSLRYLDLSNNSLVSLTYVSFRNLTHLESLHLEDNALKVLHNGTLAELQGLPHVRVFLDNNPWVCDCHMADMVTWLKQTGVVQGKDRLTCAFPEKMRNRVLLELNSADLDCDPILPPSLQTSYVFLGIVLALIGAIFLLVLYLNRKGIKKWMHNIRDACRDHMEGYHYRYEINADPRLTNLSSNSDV
Text: (§1) The stable cell lines CHOk1-hTPBG, CHOk1-cTPBG, CHOk1-mTPBG (i.e. the CHOk1-hTPBG 3A2F1, CHOk1-cTPBG 3F13G4 and CHOk1-mTPBG 3A3 shown in Table 6) and CHO-k1 cells were expanded to a 90% of confluency in T-75 cell culture flasks, and the culture medium were removed. Cells were then rinsed twice with HBSS buffer (Hanks Balanced Salt Solution, purchased from Invitrogen) and […] with enzyme-free cell dissociation buffer (Versene solution was purchased from Life technology) and harvested. Harvested cells were rinsed with HBSS buffer twice and counted before diluting with HBSS buffer to 2×10⁶ cells/mL, and 10% goat serum blocking buffer was then added, wherein the percentage is the mass percentage. Cells were incubated on ice for 30 min, and then washed twice with HBSS buffer by centrifugation. […] The plate was washed with the FACS buffer twice by centrifugation, and 100 μL per well of fluorescence (Alexa 488) labeled secondary antibody (purchased from Invitrogen) was then added and incubated on ice for 1 h. […] The results were measured and analyzed by FACS (FACS Calibur, purchased from BD). The data was analyzed by software (CellQuest) to obtain the mean fluorescence intensity (MFI) of the cells, follow by calculating EC50 value by software (GraphPad Prism) analysis and data fitting.

[32] = target: T3, mouse TPBG protein, full-length, on the cell surface (mouse, UniProt Q9Z0L0 32-426); assay: FACS on CHOk1-mTPBG cells
T3 construct: whole, on cells; also called mTPBG; CHOk1-mTPBG
T3 sequence (looked up): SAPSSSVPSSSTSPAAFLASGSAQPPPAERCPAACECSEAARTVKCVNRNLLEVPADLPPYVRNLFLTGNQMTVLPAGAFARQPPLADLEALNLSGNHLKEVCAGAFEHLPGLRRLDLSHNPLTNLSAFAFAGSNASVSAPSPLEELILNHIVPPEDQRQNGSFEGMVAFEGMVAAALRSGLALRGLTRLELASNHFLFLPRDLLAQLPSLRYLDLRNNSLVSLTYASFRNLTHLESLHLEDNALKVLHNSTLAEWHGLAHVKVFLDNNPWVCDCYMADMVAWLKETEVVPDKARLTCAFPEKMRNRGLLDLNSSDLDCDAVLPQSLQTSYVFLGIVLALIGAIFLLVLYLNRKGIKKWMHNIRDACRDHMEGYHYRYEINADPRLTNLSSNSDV
Text: as §1

[33] = target: T4, human TPBG protein, full-length, on the cell surface (human, UniProt Q13641 32-420); assay: FACS on CHOk1-hTPBG cells
T4 construct: whole, on cells; Transfected HEK293 (293F-hTPBG clones) and CHO-k1 (CHOk1-hTPBG 3A2F1) cells; also used here for endogenous TPBG on the TPBG-positive tumour lines NCI-H1568, NCI-H1975 and MDA-MB-468 in the killing assays; also called hTPBG; 5T4
T4 sequence (looked up): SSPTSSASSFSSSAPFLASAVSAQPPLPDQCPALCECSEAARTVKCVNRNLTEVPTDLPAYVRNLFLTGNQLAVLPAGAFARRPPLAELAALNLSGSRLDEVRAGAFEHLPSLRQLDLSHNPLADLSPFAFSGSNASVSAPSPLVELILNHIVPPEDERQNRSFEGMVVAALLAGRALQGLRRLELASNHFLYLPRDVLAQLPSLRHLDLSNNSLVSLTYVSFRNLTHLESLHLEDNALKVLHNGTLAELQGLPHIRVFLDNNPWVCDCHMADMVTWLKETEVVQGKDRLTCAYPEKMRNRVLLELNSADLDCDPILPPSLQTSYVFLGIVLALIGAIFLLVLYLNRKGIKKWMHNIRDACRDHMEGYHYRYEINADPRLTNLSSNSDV
Text: as §1

- Cellular MFI [1]: 6 MFI
- Cellular MFI [2]: 3.7 MFI
- Cellular MFI [3]: 2.66 MFI
- Cellular MFI [4]: 4.8 MFI
- Cellular MFI [5]: 6.3 MFI
- Cellular MFI [6]: 3.9 MFI
- OD450 nm (human TPBG-hFc protein [7]): 0.1 OD450 nm
- OD450 nm (human TPBG-hFc protein [8]): 0.11 OD450 nm
- Cellular MFI [9]: 4 MFI
- Cellular MFI [10]: 3.1 MFI
- OD450 nm (human TPBG-hFc protein [11]): 0.11 OD450 nm
- Cellular MFI [12]: 4 MFI
- Cellular MFI [13]: 5.2 MFI
- OD450 nm (human TPBG-hFc protein [14]): 0.1 OD450 nm
- OD450 nm (human TPBG-hFc protein [15]): 0.11 OD450 nm
- Cellular MFI [16]: 3 MFI
- Cellular MFI [17]: 2.6 MFI
- Cellular MFI [18]: 2.38 MFI
- OD450 nm (human TPBG-hFc protein [19]): 0.24 OD450 nm
- OD450 nm (human TPBG-hFc protein [20]): 0.1 OD450 nm
- Cellular MFI [21]: 3 MFI
- Cellular MFI [22]: 6.3 MFI
- Cellular MFI [23]: 4.6 MFI
- Cellular MFI [24]: 3.2 MFI
- Cellular MFI [25]: 3.1 MFI
- Cellular MFI [26]: 4.1 MFI
- Cellular MFI [27]: 5 MFI
- Cellular MFI [28]: 5.6 MFI
- Cellular MFI [29]: 3.24 MFI
- Cellular MFI [30]: 5.6 MFI
Molecule: mouse IgG (isotype control) (antibody)

- EC50 [31]: 0.25 nM
- binding result [32]: no binding
- EC50 [33]: 0.63 nM
B1: mouse anti-TPBG monoclonal antibody 28D4E6A9 (antibody, V domains shown)
VH: DVQLVESGGGLVRPGGSLKLSCAASGFTFSNYVMSWARQSPEKRLEWVAEISTGGSHTYYSDTVTGRFTISRDNAKKALYLEMSSLRSEDTAIYYCIMFYYGSSYSMDYWGQGTSVTVSS
VL: DIQMTQSTSSLSASLGDRITISCRASQDIRNYLNWYQQKPDGTVKLLIYHTSRLHSGVPSRFSGSGSGTDYSLTISNLEQEDIATYFCQQGDTLPLTFGAGTRLELK
notes: Mouse antibody purified from hybridoma supernatant; also called 28D4E6A9 (28D4 for short)
